Source: the supplement of paper PMC9732359
± gives the uncertainty stated by the source.

Test: protein stability index of a GFP-peptide fusion (yeast GPS) (PSI 1-4); higher = more stable; sorted into four equal gates, so the index is relative within each strain
Outline: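 Plasmids in a pooled yeast library fused tiled 17-residue yeast protein peptides downstream of GFP and also expressed Cherry. Mid-log cultures grown without leucine were sorted into four equal gates by GFP/Cherry fluorescence ratio. Each gate's plasmids were PCR-amplified and Illumina-sequenced, and reads were matched to strains by barcodes. The protein stability index is derived by multiplying each gate's read frequency by its gate number and summing the results.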

| Sequence | protein stability index (doa10∆) | protein stability index (pdr5∆) | protein stability index (san1∆) | protein stability index (ubr1∆) |
| --- | --- | --- | --- | --- |
| FLELTRRADVKTATVKI [RPL38] | 1.67 ± 0.05 | 1.77 ± 0.041 | 2.02 ± 0.077 | 1.2 ± 0.042 |
| KASVLEISPQDSIASVL [GAL11] | 3.27 ± 0.09 | 3.39 ± 0.066 | 3.13 ± 0.083 | 3.13 ± 0.086 |
| HEYIRHLALEIGEVYND [RPN1] | 2.29 ± 0.065 | 2.09 ± 0.067 | 2.49 ± 0.11 | 1.54 ± 0.077 |
| IAAKLINSGLYSVLLES [YML103C/NUP188] | 2.54 ± 0.099 | 2.08 ± 0.099 | 2.7 ± 0.076 | 2.67 ± 0.095 |
| EDSENPSDWQRNSFIRD [ITC1] | 3.1 ± 0.082 | 3.12 ± 0.069 | 3.14 ± 0.065 | 3.27 ± 0.067 |
| CPEEFAESMCQELELPG [SNF5] | 3.25 ± 0.073 | 3 ± 0.074 | 2.71 ± 0.07 | 3.03 ± 0.075 |
| RGIPRLSEDELRELDVE [SMC4] | 3.44 ± 0.14 | 3.68 ± 0.21 | 3.36 ± 0.14 | 3.57 ± 0.11 |
| GKVTDVRSTIKFQLKKV [RPL1A] | 3.77 ± 0.21 |  | 3.01 ± 0.25 | 3.46 ± 0.13 |
| PASKHDKEVVYFDEWTI [RPC34] | 3.27 ± 0.081 | 3.43 ± 0.065 | 3.04 ± 0.056 | 3.12 ± 0.082 |
| DDSDNVMSSDDENAPVA [PRE10] | 3.12 ± 0.087 | 3.42 ± 0.11 | 3.49 ± 0.11 | 3.11 ± 0.14 |
| SDVLFEFTKINTPLVGA [YJL039C/NUP192] | 1.66 ± 0.042 | 1.66 ± 0.045 | 1.45 ± 0.088 | 1.47 ± 0.037 |
| TPIAGRFTPGSFTNYIT [RPS0A] | 3.01 ± 0.11 | 2.99 ± 0.072 | 2.97 ± 0.082 | 3.16 ± 0.1 |
| STVAKFLARVIKEKFDE [IRR1] | 2.86 ± 0.1 | 2.33 ± 0.082 | 3.36 ± 0.22 | 2.16 ± 0.09 |
| KLWAEIIVKILYYRPHI [GRR1] | 1.4 ± 0.064 | 2.02 ± 0.071 | 1.19 ± 0.15 | 1.46 ± 0.073 |
| TEDIRIRAQNFKSALAN [RRP6] | 2.35 ± 0.067 | 2.41 ± 0.091 | 2.56 ± 0.1 | 2.73 ± 0.053 |
| KRQELEEASQQQQLQQN [MED2] | 2.75 ± 0.056 | 2.65 ± 0.083 | 2.48 ± 0.059 | 2.63 ± 0.061 |
| INSIDTTESSDLKEGLQ [GRR1] | 2.54 ± 0.062 | 2.6 ± 0.046 | 3.18 ± 0.037 | 3.05 ± 0.032 |
| MGVIKKKRSHHGKASRQ [SNF6] | 3.15 ± 0.14 | 3.15 ± 0.12 |  |  |
| SLSKISQAFDIVAALPI [RPP1] | 3.18 ± 0.12 | 3.46 ± 0.15 | 2.97 ± 0.13 |  |
| ENSGKEMDEKSYEKNED [LIN1] | 3.64 ± 0.28 | 3.29 ± 0.12 | 3.33 ± 0.14 | 3.16 ± 0.11 |

| Sequence | protein stability index (doa10∆) | protein stability index (pdr5∆) | protein stability index (san1∆) | protein stability index (ubr1∆) |
| --- | --- | --- | --- | --- |
| PDKLLGVILMFAAILVL [COB] | 1.63 ± 0.11 | 1.62 ± 0.11 | 1.66 ± 0.12 | 1.59 ± 0.11 |
| LAFDKLNVPVFQIVIEP [ARP7] | 2.12 ± 0.058 | 2.23 ± 0.061 | 1.8 ± 0.079 | 1.7 ± 0.056 |
| WYIEKVIRIPMQENDKI [CSI1] | 3.05 ± 0.14 | 2.78 ± 0.1 |  | 3.02 ± 0.14 |
| LSHENNVMLEKIKDNKE [RPT5] | 2.49 ± 0.063 | 2.9 ± 0.054 | 2.46 ± 0.054 | 2.71 ± 0.045 |
| HTEDESTKELKFSDIIQ [BRN1] | 3.11 ± 0.2 | 2.89 ± 0.21 | 3.23 ± 0.22 | 3.41 ± 0.094 |
| LKYSKRRSLKKQGRIKN [CSN12] | 3.01 ± 0.064 | 3.27 ± 0.069 | 3.21 ± 0.098 | 3.25 ± 0.036 |
| SEDSAVFKATSSTDEES [FAS1] | 3.03 ± 0.1 | 3.21 ± 0.11 | 2.93 ± 0.073 | 2.98 ± 0.067 |
| FILADAGLEITSDNLLT [RPP1B] | 2.55 ± 0.052 | 2.77 ± 0.054 | 2.65 ± 0.076 | 2.73 ± 0.049 |
| RAGVSQVLNRYTYSSTL [RPB2] | 2.96 ± 0.044 | 2.9 ± 0.041 | 2.9 ± 0.038 | 2.76 ± 0.036 |
| KTPNRSSTPKFTKKPVT [SIR4] | 2.77 ± 0.082 | 2.81 ± 0.082 | 2.91 ± 0.056 | 2.94 ± 0.054 |
| LIETVRQMKDVNAPLPT [RPN2] | 3.12 ± 0.055 | 3.12 ± 0.051 | 2.9 ± 0.05 | 3.04 ± 0.036 |
| ARDLLTRDEKDPKRLFE [RPS9A] | 3.37 ± 0.19 | 3.6 ± 0.11 | 3.14 ± 0.14 | 3.62 ± 0.083 |
| SFNMAQIPQQLYQSLTP [SNF5] | 2.16 ± 0.067 | 2.35 ± 0.072 | 2.14 ± 0.054 | 2.12 ± 0.047 |
| IRSSSVSLVAEATSNTN [MED4] | 1.89 ± 0.076 | 1.63 ± 0.061 | 2.12 ± 0.098 | 1.33 ± 0.036 |
| CWLSSVDVNTQKSFEQL [RPN11] | 2.69 ± 0.095 | 1.28 ± 0.19 | 1.4 ± 0.29 | 1.35 ± 0.065 |
| ITHQGANSESGHYQAFI [UBP6] | 3.04 ± 0.19 | 2.95 ± 0.08 | 3.16 ± 0.071 | 3.05 ± 0.079 |
| SSLMNGLGYVFEFQYLT [SRB5] | 2.25 ± 0.095 | 1.83 ± 0.085 | 1.64 ± 0.084 | 3.19 ± 0.073 |
| NQVGTDELILPLPSHAL [YDL116W/NUP84] | 3.09 ± 0.057 | 3.09 ± 0.045 | 2.83 ± 0.052 | 3.06 ± 0.04 |
| LLWLVLIHPENFTCNRK [SWI1] | 1.9 ± 0.056 | 1.92 ± 0.063 | 2.38 ± 0.064 | 2.96 ± 0.074 |
| IIEKITDQILQLLKEDS [RRP45] | 2.35 ± 0.11 | 2.5 ± 0.11 | 2.26 ± 0.14 | 2.37 ± 0.13 |
